The values below come from patent US20040018198A1 (Amgen, published 2004).

For assay [1], the target named is CA-IX-His-ECD (his-V5 tagged version of the CA IX protein, extracellular domain) (human, UniProt Q16790 38-414). Description: ELISA on CA-IX-His-ECD. On the technique in general: In an ELISA, binding on a coated surface is turned into a signal by an enzyme label.
Assay [2] deals with CA IX catalytic domain protein (CA9-CD) (human, UniProt Q16790 138-391). Description: ELISA on CA9-CD (catalytic domain).

B1: AB-MN-22.29 (antibody, human IgG2, V domains shown)
VH: QVQLQESGPGLVKPSETLSLTCTVSGGSISSYYWSWIRQPAGKGLEWIGRIYTSGSTNYNPSLKSRVTMSVDTSKNQFSLKLSSVTAADTAVYYCARDGQWLEDYGMDVWGQGTTVTVSS
VL: DIQMTQSPSSVSASVGDRVTITCRASQGISSWLAWFQQKPGKAPKLLIYAASSLQSGVPSRFSGSGSGTDFTLTISSLQPEDFATYYCQQANSFPITFGQGTRLEIK
notes: also called AX014H22-29
With B1, the values for the OD in assay [1] and in assay [2] were 1.96 OD and 2.52 OD, respectively.

B2: AB-MN-22.30 (antibody, human IgG2, V domains shown)
VH: QVQLVESGGGVVQPGRSLRLSCAASGFTFSSYAMHWVRQAPGKGLEWVAVIWYDGSTKYYADSVKGRFTISRDNSKNTLYLQMNSLRAEDTAVYYCARDRGLLWFGELSPHYGMDVWGQGTTVTVSS
VL: DIQMTQSPSSLSASVGDRVTITCRASQGIRNDLGWYQQKPGKAPKRLIYAASSLQSGVPSRFSGSGSGTDFTLTISSLQPEDFATYYCLQHYSYPLTFGGGTKVEIK
notes: also called AX014H22-30
B2: the OD in assay [1] was found to be 2.2 OD; in assay [2], 2.46 OD.
